Assay results taken from paper PMC10878280 (Journal of Virology, 2024).

B1: FI6v3 IgG (antibody, V domains shown)
VH: QVQLVESGGGVVQPGRSLRLSCAASGFTFSTYAMHWVRQAPGKGLEWVAVISYDANYKYYADSVKGRFTISRDNSKNTLYLQMNSLRAEDTAVYYCAKDSQLRSLLYFEWLSQGYFDYWGQGTLVTVSS
VL: not shown
notes: not shown: ybbR, C-terminal, kept; copies: 2 + 2
B2: S139\1 IgG (antibody, V domains shown)
VH: QVQLQQSGTELKKPGASVKISCKATGYTFSSYWIEWIKQRPGHGLEWIGEILPEIGMTNYNENFKGKATFTANTSSNTVYMQLSSLTSEDSAVYYCARPYDYSWFAYWGQGTLVTVSA
VL: DIVMTQSQKFMSTSVGDRVSVTCKASQNVDTNVAWYQEKPGQSPKTLIYSASNRYSGVPDRFTGSASGTDFTLTITNVQSEDLAEYFCQQYNSYPYTFGGGTKLEIK
notes: as for B1
B3: C05 IgG (antibody, V domains shown)
VH: QVQLQESGGGLVQPGESLRLSCVGSGSSFGESTLSYYAVSWVRQAPGKGLEWLSIINAGGGDIDYADSVEGRFTISRDNSKETLYLQMTNLRVEDTGVYYCAKHMSMQQVVSAGWERADLVGDAFDVWGQGTMVTVSS
VL: DIQLTQSPSSLSASVGDRVTLTCQASQDIRKFLNWYQQKPGKGPKLLIYDASNLQRGVPSRFSGGGSGTDFTLIISSLQPEDVGTYYCQQYDGLPFTFGGGTKVVIK
notes: as for B1

Target: T1, hemagglutinin (HA) of A/WSN/1933, on transfected HEK-293T cells (Influenza A virus A/WSN/1933 (H1N1), UniProt P03454)
T1 construct: source: HEK-293T, transfected with HA-expressing plasmid, on cells
Assay: fluorescence imaging with FRAP of labelled antibody on transfected cells
Details: one partner purified

Q: Does B1 bind?
A: Result: binds

Q: Does B2 bind?
A: Result: binds

Q: Does B3 bind?
A: Result: binds
